Assay [1] has as its target T1, human IL-31 (human, UniProt Q6EBC2 24-164).
T1 sequence (looked up): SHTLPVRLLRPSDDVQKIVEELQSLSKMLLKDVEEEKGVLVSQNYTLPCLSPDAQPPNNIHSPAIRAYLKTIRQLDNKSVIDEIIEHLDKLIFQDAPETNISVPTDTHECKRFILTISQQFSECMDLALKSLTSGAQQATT
The experiment in a line: cell-based or functional assay.

In assay [2] the target is T2, cynomolgus IL-31-His (cynomolgus monkey (Macaca fascicularis), UniProt G7PJ78 24-163).
T2 construct: extracellular domain; also called cynomolgus monkey IL-31; cyno IL-31; not shown: His tag
T2 sequence: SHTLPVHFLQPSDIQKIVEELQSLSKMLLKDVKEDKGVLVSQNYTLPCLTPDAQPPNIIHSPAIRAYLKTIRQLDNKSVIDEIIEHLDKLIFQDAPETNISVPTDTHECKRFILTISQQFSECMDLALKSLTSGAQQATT
The experiment in a line: SPR (Biacore T200), IL-31-His captured via anti-His antibody, scFv as analyte, 1:1 model. (In SPR one partner is held on a chip, and binding of the other changes the refractive index at the surface.)

The target in assay [3] is T1, human IL-31. The experiment in a line: cell-based or functional assay. This is another data set of the same source.

B1: PRO1900 (scFv)
chain: AFQLTQSPSSLSASVGDRVTITCQASQSIDSWLAWYQQKPGKPPKLLIYQASKLASGVPSRFSGSGSGTDYTLTISSLQPEDFATYYCQTYYGGGHIGWGFGTGTKVTVLGGGGGSGGGGSGGGGSGGGGSQSQLVESGGGRVQPGGSLRLSCAASGFSFSANYWICWVRQAPGKGLEWIVCIYIGSRADTYYAPWAKGRFTISKDNSKNTVYLQMNSLRAEDTATYFCARFSSGIYDLDRFFLWGQGTQVTVSS
As for B1, in assay [1], the “IC50, neutralization of hIL-31-induced signaling in IL-31RA/OSMR dimerization assay” value amounted to 8.21 ng/mL.

B2: PRO1901 (scFv)
chain: AFQLTQSPSSLSASVGDRVTITCQASQSIDSWLAWYQQKPGKPPKLLIYQASKLASGVPSRFSGSGSGTDYTLTISSLQPEDFATYYCQTYYGGGHIGWGFGTGTKVTVLGGGGGSGGGGSGGGGSGGGGSQSQLVESGGGSVQPGGSLRLSCAASGFSFSANYWICWVRQAPGKGLEWIVCIYIGSRADTYYAPWAKGRFTISKDNSKNTVYLQMNSLRAEDTATYFCARFSSGIYDLDRFFLWGQGTQVTVSS
B2: in assay [1], the “IC50, neutralization of hIL-31-induced signaling in IL-31RA/OSMR dimerization assay” value was 8.07 ng/mL. In assay [2], the Kd (as a rule, the constant that tells how readily two partners part at equilibrium) turned out to be 1.14 nM; the koff – broadly, a measure of how fast the partners let go of each other – is 0.000569 s⁻¹; the association rate constant (kon) (commonly a measure of how fast the partners come together) is 501000 M⁻¹ s⁻¹.

B3: PRO1902 (scFv)
chain: AFQLTQSPSSLSASVGDRVTITCQASQSIDSWLAWYQQKPGKPPKLLIYQASKLASGVPSRFSGSGSGTDYTLTISSLQPEDFATYYCQTYYGGGHIGWGFGTGTKVTVLGGGGGSGGGGSGGGGSGGGGSQSQLVESGGGLVQPGGSLRLSCAASGFSFSANYWICWVRQAPGKGLEWIVCISIGSRADTYYAPWAKGRFTISKDNSKNTVYLQMNSLRAEDTAVYFCARFSSGIYDLDRFFLWGQGTLVTVSS
On to B3, for which the “IC50, neutralization of hIL-31-induced signaling in IL-31RA/OSMR dimerization assay” value in assay [1] was 371 ng/mL. In assay [2], this molecule returned a Kd of 3.38 nM, a koff of 0.00247 s⁻¹ and a kon of 731000 M⁻¹ s⁻¹.

B4: PRO1903 (scFv)
chain: AFQLTQSPSSLSASVGDRVTITCQASQSIESWLAWYQQKPGKPPKLLIYQASKLASGVPSRFSGSGSGTDYTLTISSLQPEDFATYYCQTYYGGGHIGWGFGTGTKVTVLGGGGGSGGGGSGGGGSGGGGSQSQLVESGGGLVQPGGSLRLSCAASGFSFSANYWICWVRQAPGKGLEWIVCIYIGSRADTYYAPWAKGRFTISKDNSKNTVYLQMNSLRAEDTAVYFCARFSSGIYDLDRFFLWGQGTLVTVSS
As to B4, in assay [1], the “IC50, neutralization of hIL-31-induced signaling in IL-31RA/OSMR dimerization assay” value is 7.98 ng/mL. In assay [2], this molecule yielded a Kd of 1.39 nM, a koff of 0.000605 s⁻¹ and an on-rate (kon) of 434000 M⁻¹ s⁻¹.

B5: PRO2198 (bispecific antibody)
chain 1: DIQMTQSPSSLSARVGDRVTITCQASEDIESYLAWYQQKPGKAPKLLIYRASTLAYGVPSRFSGSGSGRDFTLTISSLQPEDFATYYCLGSSYSTGSNIFGQGTKVEIKRTVAAPSVFIFPPSDEQLKSGTASVVCLLNNFYPREAKVQWKVDNALQSGNSQESVTEQDSKDSTYSLSSTLTLSKADYEKHKVYACEVTHQGLSSPVTKSFNRGEC
chain 2: not shown
For B5, in assay [3], the “Mean IC50, neutralization of human IL-31-induced signaling in IL-31RA/OSMR dimerization assay” value worked out at 198 pM.

B6: PRO2199 (bispecific antibody)
chain 1: not shown
chain 2: DIQMTQSPSSLSASVGDRVTITCQASEDIESYLAWYQQKPGKAPKLLIYRASTLAYGVPSRFSGSGSGTDFTLTISSLQPEDFATYYCLGSSYSTGSNIFGQGTKVEIKRTVAAPSVFIFPPSDEQLKSGTASVVCLLNNFYPREAKVQWKVDNALQSGNSQESVTEQDSKDSTYSLSSTLTLSKADYEKHKVYACEVTHQGLSSPVTKSFNRGEC
Take B6: the “Mean IC50, neutralization of human IL-31-induced signaling in IL-31RA/OSMR dimerization assay” value in assay [3] was 142 pM.

(Values after patent EP4019546A1 (Numab Therapeutics AG, dated 2022).)
